Test results from PMC8887474.

These binders were tested against YTHDC1 YTH domain (Homo sapiens, UniProt Q96MU7 345-509) (assay: ITC).

Binder	Kd [nM]
CCAUCG (ssRNA, m6A at position 3) [CC(m6A)UCG hexamer]	1270 ± 240
GGCGCAUCGGCGCC (structured_RNA, m6A at position 6) [(m6A)UCG Xist tetraloop hairpin]	3030 ± 530
GGCGUAUCGGCGCC (structured_RNA, m6A at position 6) [UG-mismatch (m6A)UCG Xist hairpin]	2050 ± 100
